Measurements published in patent publication US20250195685A1 (CAPSTAN THERAPEUTICS, published 2025).
Numbering of substitutions follows the chain as printed.

B1: CDB1017p (Fab, V domains shown)
VH: EVQLQQSGPELVKPGASVKISCKASRYTFTDYNLHWVKLSHEKSLEWIGFIYPYNGGTGYNQKFKNKAKLTVDYSSSTAYMELRSLTSVDAAVYYCARDHRYNEGVSFDYWGQGTTLTVSS
VL: NIVLTQSPASLAVSLGQRATISCRASESVDGFGNSFMNWYQQKPGQSPKLLIYLASNLESGVPARFSGSGSRTDFTLTIDPVEADDAATYYCQQNNEDPYTFGGGTKLEIK
notes: CDB1017p [sic]; also called CBD1017p; mouse CT8 F(ab)
B2: CBD1032 (Fab, V domains shown)
VH: QVQLVQSGAEVKKPGASVKVSCKASRYTFTDYNLHWVRQAPGQGLEWMGFIYPYNGGTGYAQKFQGRVTMTRDTSTSTVYMELSSLRSEDTAVYYCARDHRYNEGVSFDYWGQGTTVTVSS
VL: DIQMTQSPSSLSASVGDRVTITCRASESVDGFGNSFMNWYQQKPGKAPKLLIYLASNLESGVPSRFSGSGSGTDFTLTISSLQPEDFATYYCQQNNEDPYTFGQGTKLEIK
notes: also called h1017-H1/L1 F(ab)
B3: CBD1035 (Fab, V domains shown)
VH: B2 VH with V20I, M48I, V68A, M70L, R72V, V79A, V117L
VL: B2 VL with M4L, V19A, L82V
notes: also called h1017-H3/L2 F(ab)
B4: CBD1381 (Fab, V domains shown)
VH: B2 VH with N55Q, R72V, V79A
VL: B2 VL with M4L, V19A, L82V
B5: CBD1040 (Fab, V domains shown)
VH: B2 VH with V20I, M48I, V68A, M70L, R72V, T74Y, V79A, V117L
VL: B2 VL with M4L, V19A, G72R, L82V
notes: also called h1017-H5/L3 F(ab)
B6: CBD1039 (Fab, V domains shown)
VH: B2 VH with V20I, M48I, V68A, M70L, R72V, T74Y, V79A, V117L
VL: B2 VL with M4L, V19A, L82V
notes: also called h1017-H5/L2 F(ab)
B7: CBD1036 (Fab, V domains shown)
VH: B2 VH with V20I, M48I, V68A, M70L, R72V, V79A, V117L
VL: B2 VL with M4L, V19A, G72R, L82V
notes: also called h1017-H3/L3 F(ab)
B8: CBD1037 (Fab, V domains shown)
VH: B2 VH with R72V, T74Y, V79A
VL: B2 VL with M4L, V19A, L82V
notes: also called h1017-H4/L2 F(ab)
B9: CBD1034 (Fab, V domains shown)
VH: B2 VH with R72V, V79A
VL: B2 VL with M4L, V19A, G72R, L82V
notes: also called h1017-H2/L3 F(ab)
B10: CBD1380 (Fab, V domains shown)
VH: B2 VH with N55S, R72V, V79A
VL: B2 VL with M4L, V19A, L82V
B11: CBD1038 (Fab, V domains shown)
VH: B2 VH with R72V, T74Y, V79A
VL: B2 VL with M4L, V19A, G72R, L82V
notes: also called h1017-H4/L3 F(ab)

Columns and labels:
[1] = biological target: T1, human CD8αα homodimer, recombinant protein (Acro Biosystems) (human, UniProt P01732 22-182); assay: BLI kinetics, F(ab) on biotinylated CD8α (SA-XT sensor), 1:1 fit, 30 °C
T1 construct: also called CD8αα antigen; biotinylated CD8α recombinant protein (CDA-H82E3)
Description: (§1) Biolayer interferometry kinetic assays were performed using a GatorBio Gator Plus BLI system. Kinetic buffer containing PBS plus 0.1% Tween 20 and 0.2% BSA was used for calculating the baseline. To measure the binding kinetics of anti-CD8α antibody fragment (Fab), streptavidin-immobilized SA-XT sensors (#160029, Gator Bio) were prehydrated in the kinetic buffer and loaded with […] biotinylated CD8α recombinant protein (CDA-H82E3, Acro Biosystems) at a spin speed of 400 rpm to a threshold response of 10 nm. The sensors were then incubated in the kinetic buffer for 300 s to acquire a baseline measurement prior to each association. […] The antigen-loaded sensors were incubated in the diluted solutions to capture Fab fragments for 300 s to record the association phase. Sensors were finally incubated in the kinetic buffer for 900 s to record the dissociation phase. The spin speed for all steps except the antigen loading step was 1000 rpm. The temperature of the performed assays was either 30° C. or 37° C. during the association and dissociation phases. Sensor data were baseline subtracted, and global curve fitting of the kinetic data from six different analyte concentrations at a 1:1 monovalent binding model was performed using GatorOne software (version v2.10) to determine kinetic rate constants (kₒₙ and koff) and equilibrium dissociation constants (KD) of the analyzed antibodies.

[2] = biological target: T1, human CD8αα homodimer, recombinant …; assay: BLI kinetics, F(ab) on biotinylated CD8α (SA-XT sensor), 1:1 fit, 37 °C [CONT'ED]
Description: as §1

[3] = biological target: T1, human CD8αα homodimer, recombinant …; assay: BLI kinetic rate analysis, Fab fragment (temperature not given)
Description: as §1

T1 sequence (P01732 22-182 limits assumed): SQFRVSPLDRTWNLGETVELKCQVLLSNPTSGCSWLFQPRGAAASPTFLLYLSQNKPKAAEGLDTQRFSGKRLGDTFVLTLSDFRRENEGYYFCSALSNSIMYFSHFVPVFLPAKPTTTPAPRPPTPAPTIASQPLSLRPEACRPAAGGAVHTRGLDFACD

Binder | Kd [1] [nM] | koff [1] [s⁻¹] | kon [1] [M⁻¹ s⁻¹] | Kd [2] [nM] | koff [2] [s⁻¹] | kon [2] [M⁻¹ s⁻¹] | Kd [3] [nM] | koff [3] [s⁻¹] | kon [3] [M⁻¹ s⁻¹]
B1 | 1.19 | 7.76e-05 | 65100 |  |  |  |  |  | 
B2 | 1.84 | 9.45e-05 | 51500 | 1.59 | 5.35e-05 | 33700 |  |  | 
B3 | 3.07 | 0.000144 | 46900 | 8.02 | 9.12e-05 | 11400 |  |  | 
B4 |  |  |  |  |  |  | 1.22 | 9.59e-05 | 78600
B5 | 6.07 | 0.00017 | 28000 | 7.39 | 0.000103 | 14000 |  |  | 
B6 | 3.11 | 0.000157 | 50400 | 4.59 | 9.27e-05 | 20200 |  |  | 
B7 | 6.16 | 0.000207 | 33700 | 1.68 | 0.000194 | 117000 |  |  | 
B8 | 1.72 | 0.000114 | 66000 | 1.27 | 9.71e-05 | 76800 |  |  | 
B9 | 9.9 | 0.000204 | 20900 | 1.82 | 0.000187 | 103000 |  |  | 
B10 |  |  |  |  |  |  | 1.93 | 0.000116 | 59900
B11 | 2.31 | 0.000146 | 63300 | 7.42 | 0.00014 | 18900 |  |  | 
